Results published in publication PMC5413349.

Target: human cytoplasmic dynein-1 complex (recombinant, SNAPf tag on the heavy chain) (human) (UniProt Q14204)

mean duration of plus-end tracking events of dynein on growing microtubules with EB1 and dynactin after addition of LIS1: 14 s
B1: human full-length Lissencephaly-1 (LIS1), unlabelled (natural protein)
chain: MVLSQRQRDELNRAIADYLRSNGYEEAYSVFKKEAELDVNEELDKKYAGLLEKKWTSVIRLQKKVMELESKLNEAKEEFTSGGPLGQKRDPKEWIPRPPEKYALSGHRSPVTRVIFHPVFSVMVSASEDATIKVWDYETGDFERTLKGHTDSVQDISFDHSGKLLASCSADMTIKLWDFQGFECIRTMHGHDHNVSSVAIMPNGDHIVSASRDKTIKMWEVQTGYCVKTFTGHREWVRMVRPNQDGTLIASCSNDQTVRVWVVATKECKAELREHEHVVECISWAPESSYSSISEATGSETKKSGKPGPFLLSGSRDKTIKMWDVSTGMCLMTLVGHDNWVRGVLFHSGGKFILSCADDKTLRVWDYKNKRCMKTLNAHEHFVTSLDFHKTAPYVVTGSVDQTVKVWECR
